Assay results published in publication PMC10786891, “Massively parallel profiling of RNA-targeting CRISPR-Cas13d”.
Where a chain is given by its changes, count along the chain named. Names and notes keep the numbering of the source.

T1: EsCas13d, nuclease-dead (Eubacterium siraeum, UniProt B0MS50, R295A;H300A;R849A;H854A)
T1 sequence: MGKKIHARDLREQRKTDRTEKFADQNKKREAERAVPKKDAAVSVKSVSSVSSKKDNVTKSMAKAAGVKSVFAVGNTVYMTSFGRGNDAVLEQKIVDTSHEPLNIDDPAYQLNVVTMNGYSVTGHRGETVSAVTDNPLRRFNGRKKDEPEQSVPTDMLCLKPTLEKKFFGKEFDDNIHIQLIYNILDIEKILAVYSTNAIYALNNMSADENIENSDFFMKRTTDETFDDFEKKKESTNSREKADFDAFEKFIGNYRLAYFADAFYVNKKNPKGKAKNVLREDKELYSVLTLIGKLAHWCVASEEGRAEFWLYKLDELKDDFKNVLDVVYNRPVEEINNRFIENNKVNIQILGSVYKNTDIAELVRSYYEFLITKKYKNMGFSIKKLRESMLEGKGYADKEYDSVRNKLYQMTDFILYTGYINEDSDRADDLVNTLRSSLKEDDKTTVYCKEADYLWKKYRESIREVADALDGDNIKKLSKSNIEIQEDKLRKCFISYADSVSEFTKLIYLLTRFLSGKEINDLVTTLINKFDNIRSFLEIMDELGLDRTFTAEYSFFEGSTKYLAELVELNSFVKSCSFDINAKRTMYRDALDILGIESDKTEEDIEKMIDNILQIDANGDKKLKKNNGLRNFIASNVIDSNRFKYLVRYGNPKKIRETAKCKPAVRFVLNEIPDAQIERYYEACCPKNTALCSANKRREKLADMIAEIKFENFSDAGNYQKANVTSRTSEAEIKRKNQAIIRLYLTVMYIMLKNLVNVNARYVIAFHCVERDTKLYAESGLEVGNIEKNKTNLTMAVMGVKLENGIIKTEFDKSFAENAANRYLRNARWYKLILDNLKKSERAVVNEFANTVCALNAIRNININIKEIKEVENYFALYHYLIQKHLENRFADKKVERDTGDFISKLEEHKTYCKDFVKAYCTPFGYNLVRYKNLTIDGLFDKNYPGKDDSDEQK

B1: target 1 insC 3' of 18,insU 3' of 1 (mixed)
RNA 1: CACCCGUGCAAAAAUGCAGGGGUCUAAAACUGAGCGGAUAACCUCUCUAUGG
RNA 2: GGGAAUGGAUCCACAUCUACGAAUUCGUACCAUACGAGAGGUUAUCCGCUCAUCCGAGAUCGGAAGAGCACACGU
B2: target 1 A1G,A9G (mixed)
RNA 1: B1 RNA 1
RNA 2: GGGAAUGGAUCCACAUCUACGAAUUCGUACCAUAGAGAGGUUGUCCGCUCGCCGAGAUCGGAAGAGCACACGU
B3: target 1 C7U,U19G (mixed)
RNA 1: B1 RNA 1
RNA 2: B2 RNA 2 with U33G, G43A, C45U, G51A
B4: target 1 complement block 2-8 (mixed)
RNA 1: B1 RNA 1
RNA 2: B2 RNA 2 with G43A, U44A, C45G, C46G, G47C, C48G, U49A, C50G, G51A
B5: target 1 A1C,A9G (mixed)
RNA 1: B1 RNA 1
RNA 2: B2 RNA 2 with G51C
B6: target 1 complement block 4-11 (mixed)
RNA 1: B1 RNA 1
RNA 2: B2 RNA 2 with U41A, U42A, G43U, U44A, C45G, C46G, G47C, C48G, G51A
B7: target 1 del2,del14 (mixed)
RNA 1: B1 RNA 1
RNA 2: GGGAAUGGAUCCACAUCUACGAAUUCGUACCAUAGAGGGUUAUCCGCUACCGAGAUCGGAAGAGCACACGU
B8: target 1 del14,del16 (mixed)
RNA 1: B1 RNA 1
RNA 2: GGGAAUGGAUCCACAUCUACGAAUUCGUACCAUAGGGGUUAUCCGCUCACCGAGAUCGGAAGAGCACACGU
B9: target 1 A9U,U10G (mixed)
RNA 1: B1 RNA 1
RNA 2: B2 RNA 2 with U42G, G43U, G51A
B10: target 1 A1U,A9G (mixed)
RNA 1: B1 RNA 1
RNA 2: B2 RNA 2 with G51U
B11: target 1 G5A,A9U (mixed)
RNA 1: B1 RNA 1
RNA 2: B2 RNA 2 with G43U, G47A, G51A
B12: target 1 insC 3' of 18,insA 3' of 3 (mixed)
RNA 1: B1 RNA 1
RNA 2: B1 RNA 2 with C51A, A52C, U53A
B13: target 1 insU 3' of 21,insA 3' of 21 (mixed)
RNA 1: B1 RNA 1
RNA 2: GGGAAUGGAUCCACAUCUACGAAUUCGUACCUAAUAGAGAGGUUAUCCGCUCACCGAGAUCGGAAGAGCACACGU
B14: target 1 U8C,C21A (mixed)
RNA 1: B1 RNA 1
RNA 2: B2 RNA 2 with C31A, G43A, U44C, G51A
B15: target 1 G13A,C21A (mixed)
RNA 1: B1 RNA 1
RNA 2: B2 RNA 2 with C31A, G39A, G43A, G51A
B16: target 1 insC 3' of 14,insC 3' of 14 (mixed)
RNA 1: B1 RNA 1
RNA 2: B13 RNA 2 with U32A, A33U, U35G, G39C, A40C
B17: target 1 insC 3' of 9,insC 3' of 9 (mixed)
RNA 1: B1 RNA 1
RNA 2: B13 RNA 2 with U32A, A33U, U35G, A40G, G41U, G42U, U43A, U44C, A45C
B18: target 1 A1C,C4U (mixed)
RNA 1: B1 RNA 1
RNA 2: B2 RNA 2 with G43A, C48U, G51C
B19: target 1 A1G,C4U (mixed)
RNA 1: B1 RNA 1
RNA 2: B2 RNA 2 with G43A, C48U
B20: target 1 insU 3' of 9,insC 3' of 3 (mixed)
RNA 1: B1 RNA 1
RNA 2: GGGAAUGGAUCCACAUCUACGAAUUCGUACCAUAGAGAGGUUAUUCCGCUCCACCGAGAUCGGAAGAGCACACGU
B21: target 1 insC 3' of 13,insC 3' of 10 (mixed)
RNA 1: B1 RNA 1
RNA 2: B13 RNA 2 with U32A, A33U, U35G, A40C, G42U, U44C
B22: target 1 C2G,G5A (mixed)
RNA 1: B1 RNA 1
RNA 2: B2 RNA 2 with G43A, G47A, C50G, G51A
B23: target 1 insU 3' of 20,insG 3' of 10 (mixed)
RNA 1: B1 RNA 1
RNA 2: GGGAAUGGAUCCACAUCUACGAAUUCGUACCAUUAGAGAGGUUGAUCCGCUCACCGAGAUCGGAAGAGCACACGU
B24: target 1 insU 3' of 14,insA 3' of 11 (mixed)
RNA 1: B1 RNA 1
RNA 2: B13 RNA 2 with U32A, A33U, U35G, G39U, A40G, G42U, U43A
B25: target 1 insA 3' of 19,insU 3' of 4 (mixed)
RNA 1: B1 RNA 1
RNA 2: B1 RNA 2 with C35A, C51U, A52C, U53A
B26: target 1 insC 3' of 18,insU 3' of 9 (mixed)
RNA 1: B1 RNA 1
RNA 2: B23 RNA 2 with U34A, A35C, G44A, A45U
B27: target 1 insU 3' of 6,insG 3' of 1 (mixed)
RNA 1: B1 RNA 1
RNA 2: B20 RNA 2 with U45C, C47U, C52A, A53G
B28: target 1 U3G,A18G (mixed)
RNA 1: B1 RNA 1
RNA 2: B2 RNA 2 with A34G, G43A, U49G, G51A
B29: target 1 U11G,G17U (mixed)
RNA 1: B1 RNA 1
RNA 2: B2 RNA 2 with G35U, U41G, G43A, G51A
B30: target 1 insA 3' of 22,insA 3' of 10 (mixed)
RNA 1: B1 RNA 1
RNA 2: B23 RNA 2 with C31A, A32C, U33A, G44A
B31: target 1 insA 3' of 15,insA 3' of 8 (mixed)
RNA 1: B1 RNA 1
RNA 2: B23 RNA 2 with U34A, A35G, G36A, A37G, G38A, G44A, A45U, U46A
B32: target 1 G5A,U8C (mixed)
RNA 1: B1 RNA 1
RNA 2: B2 RNA 2 with G43A, U44C, G47A, G51A
B33: target 1 C7A,U10A (mixed)
RNA 1: B1 RNA 1
RNA 2: B2 RNA 2 with U42A, G43A, C45A, G51A
B34: target 1 insC 3' of 20,insC 3' of 5 (mixed)
RNA 1: B1 RNA 1
RNA 2: B23 RNA 2 with U33C, G44A, A45U, U46C, C48G, G49C
B35: target 1 G5C,G15A (mixed)
RNA 1: B1 RNA 1
RNA 2: B2 RNA 2 with G37A, G43A, G47C, G51A

Target: T1, EsCas13d, nuclease-dead
Test: crRNA (strand 1, pre-loaded); Mg2+; 40 mM Tris-HCl pH 7.5, 150 mM NaCl, 6 mM MgCl2, 1 mM DTT, 0.1% Tween-20, 0.2 mg/ml BSA; 25 C; 10 min per concentration, then washed
Conditions: tags: His6-TwinStrep-SUMO cleaved; N-terminal SNAP kept (SNAP-Surface 488); label: 3' end held by stalled T7 RNA polymerase

Binder | Kd [nM]
B1 | 30.7 ± 2.6
B2 | 12.6 ± 0.5
B3 | 57 ± 7
B4 | 10.5 ± 0.5
B5 | 21.2 ± 3.4
B6 | 12.4 ± 0.6
B7 | 64 ± 11
B8 | 84 ± 17
B9 | 21.7 ± 2.1
B10 | 13.1 ± 1.3
B11 | 29.7 ± 1.8
B12 | 23.9 ± 1.2
B13 | 22.4 ± 3.3
B14 | 44 ± 5
B15 | 35 ± 4
B16 | 42 ± 4
B17 | 10.7 ± 0.7
B18 | 9.8 ± 1.2

Binder | Kd [nM]
B19 | 31 ± 5
B20 | 16.3 ± 1.1
B21 | 12.9 ± 1.3
B22 | 35 ± 5
B23 | 29 ± 6
B24 | 54 ± 10
B25 | 17.9 ± 0.9
B26 | 51 ± 11
B27 | 12.5 ± 0.8
B28 | 87 ± 23
B29 | 47 ± 5
B30 | 14.6 ± 1
B31 | 7.4 ± 0.4
B32 | 15.3 ± 0.7
B33 | 8.48 ± 0.31
B34 | 5.23 ± 0.33
B35 | 19.9 ± 1.8
